Reference: paper doi:10.1101/2022.07.30.502139

Target: OTLD1-RFP (Arabidopsis)
Test: FRET or BRET

B1: LSH10-GFP (natural protein)
chain: MSSPRERGKSLMESSGSEPPVTPSRYESQKRRDWNTFGQYLKNQRPPVPMSHCSCNHVLDFLRYLDQFGKTKVHVPGCMFYGQPEPPAPCTCPLRQAWGSLDALIGRLRAAYEENGGPPETNPFASGAIRVYLREVRECQAKARGIPYKKKKKKKPTPEMGGGREDSSSSSSSFSFS
- %AB-FRET (donor dequenching): 13%
